Consider one molecule from patent publication US20100278829A1, “DUAL INHIBITION OF IMMUNOPHILIN/CYCLOPHILIN FAMILY MEMBERS AND EMMPRIN IMMUNOGLOBULIN RECEPTOR SUPERFAMILY MEMBERS” (priority 2009, published 2010).

The experiment concerns the target T1, CypA (Homo sapiens, UniProt P62937).
T1 construct: CypA was purified as previously described; made in house; host or cells: E. coli BL21 (DE3)
The experiment is described as follows: NMR titration of 15N-CypA, binding isotherms. The conditions noted are these: chemical shift changes, 25° C. The method, then:
NMR sample preparation, spectroscopy, and data analysis. All NMR spectra were collected at 25° C. on a Varian 600-, 720- , 800-, or 900-MHz spectrometer in 50 mM NaPO4, pH 6.5, 150 mM NaCl, and 50 mM imidazole supplemented with 7% D2O. There were only modest changes to the resonance positions with imidazole present (data not shown), yet imidazole did increase the lifetime of each sample slightly and, thus, was maintained in all samples. Samples utilized for assignment purposes contained 0.5-1 mM protein, while all samples utilized for titration purposes contained 0.5 mM protein with the indicated final concentration of the titrant. All spectra were processed using NMRPipe software65 and analyzed using CCPNmr software.66 Unless otherwise noted, all pulse sequences were obtained from standard Varian Biopack libraries. Transverse relaxation optimized spectroscopy (i.e., TROSY-based) HSQC experiments were used only when noted.
NMR titration experiments were first conducted using 15N-CypA with unlabeled CD147, and chemical shift changes were only observed for extracellular recombinant CD147 constructs that included the membrane-proximal region of CD147 residues 206-214. […] However, both extracellular cyclophilin ligands of CD147, CypA and CypB, are known to readily traverse the membrane. […]

T1 sequence (P62937 whole entry): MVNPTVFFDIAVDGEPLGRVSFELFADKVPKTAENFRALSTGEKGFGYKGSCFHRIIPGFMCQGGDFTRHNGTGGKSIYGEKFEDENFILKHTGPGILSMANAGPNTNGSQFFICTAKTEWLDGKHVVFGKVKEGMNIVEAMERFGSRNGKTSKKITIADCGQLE

B1: CD147: extracellular recombinant CD147 constructs that include membrane-proximal residues 206-214 (protein, UniProt P35613 138-323, looked up)
extracellular domain: EPGTVFTTVEDLGSKILLTCSLNDSATEVTGHRWLKGGVVLKEDALPGQKTEFKVDSDDQWGEYSCVFLPEPMGTANIQLHGPPRVKAVKSSEHINEGETAMLVCKSESVPPVTDWAWYKITDSEDKALMNGSESRFFVSSSQGRSELHIENLNMEADPGQYRCNGTSSKGSDQAIITLRVRSHLA
modifications: extracellular domain
The term Kd denotes the equilibrium constant for the complex coming apart. For B1, the Kd is more than 1000 µM.
